From paper PMC10304631 (Pharmaceutics, 2023)

Legend:
[1] = predicted log P; ref Drugbank.com and pubchem.ncbi.nlm.nih.gov (accessed on 3 January 2023); cited from earlier work
Caco-2 cells [2] = assay: PEN-mediated uptake of TAMRA-insulin by flow cytometry; type: cell-based, human; conditions: 5 µM TAMRA-insulin alone or with 20 µM PEN, 1 h, 37 °C, mean ± SD, N = 2, n = 3
Experimental: The controls were incubated with a buffer without CPP or insulin. The cells were kept on a shaking table (37 °C, 50 rpm) for 1 h. Hereafter, the test solutions were removed, and the cells were washed twice with cold phosphate-buffered saline (4 °C) and trypsinized for 10–15 min. Trypsinization was terminated by the addition of excess cold hHBSS (4 °C) containing 10% (v/v) FBS (hHBSS/FBS). The cells were then collected and centrifuged at 4000 rpm (1076× g, 4 °C). The supernatant was removed, and the cells were washed once with hHBSS/FBS and centrifuged again at the same conditions before suspension in hHBSS/FBS containing 0.3% (v/v) DRAQ7 as a marker of the plasma membrane’s integrity. To quench extracellular plasma membrane-associated fluorescence, a parallel experiment was performed using the same test solutions, with the addition of trypan blue (TB) at a final concentration of 0.1% (v/v) just prior to analysis.

Caco-2 cells [3] = assay: PEN-mediated uptake of TAMRA-insulin by confocal microscopy (CLSM); type: cell-based, human; conditions: undifferentiated Caco-2 cells; 5 µM TAMRA-insulin alone, pH 7.4, 1 h

OC[C@@H](O)[C@@H](O)[C@H](O)[C@H](O)CO [Mannitol]
Log P [1]: −3.7

TAMRA-Insulin: insulin labeled with TAMRA (5/6-carboxy-tetramethyl-rhodamine succinimidyl ester)
MFI (A.N.) of TAMRA-insulin (Caco-2 cells [2]; pH 6.5, with Trypan Blue (0.1% v/v)): 49.6 ± 1.9 A.N.
MFI (A.N.) of TAMRA-insulin (Caco-2 cells [2]; pH 7.4, with Trypan Blue (0.1% v/v)): 40.8 ± 2.6 A.N.
MFI (A.N.) of TAMRA-insulin (Caco-2 cells [2]; pH 7.4, without Trypan Blue): 41.2 ± 2.9 A.N.
Uptake of TAMRA-insulin (CLSM) (Caco-2 cells [3]): uptake was absent

Vancomycin
Log P [1]: −4.4
